Data reported in article doi:10.1101/517573.

Molecular target: hSgt2 M233D (Homo sapiens) (UniProt O43765)
Assay: pull-down

Sequence of UniProt O43765 (O43765 213-313 M233D): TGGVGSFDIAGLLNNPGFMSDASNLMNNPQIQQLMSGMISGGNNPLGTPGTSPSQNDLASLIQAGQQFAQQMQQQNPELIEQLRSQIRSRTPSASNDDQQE

percent reduction of binding against wild type: 36%
B1: MBP-Sbh1 full length (natural protein)
chain: MSSPTPPGGQRTLQKRKQGSSQKVAASAPKKNTNSNNSILKIYSDEATGLRVDPLVVLFLAVGFIFSVVALHVISKVAGKLF
